Measured values from patent publication US20240279304A1, “DSG2 COMPOSITIONS AND METHODS” (Arvada Therapeutics, Inc., priority 2021, published 2024).

Tests used:
anti-DSG2 antibody [1] = test: anti-DSG2 antibody MSD assay; inhibition by the fusion polypeptide (fraction C per table title); antibody at 1000 ng/mL
anti-DSG2 antibody [2] = test: anti-DSG2 antibody MSD assay; inhibition by the fusion polypeptide (fraction C per table title); antibody at 200 ng/mL
anti-DSG2 antibody [3] = test: electrochemical immunoassay; fusion polypeptide at 5 mg/mL (so in the source), antibody at 500 ng/mL
anti-DSG2 antibody [4] = test: anti-DSG2 antibody meso scale discovery (MSD) assay, blocking of anti-DSG2 antibody; assay type: binding; conditions: for % inhibition: fraction C (table title)
Method: (§1) The DSG2 fusion polypeptides were tested for the ability to block anti-DSG2 antibody by an anti-DSG2 antibody meso scale discovery (MSD) assay. […] The DSG2 fusion polypeptides were subjected to size exclusion chromatography and different elution fractions were examined. […] As shown in Table 7 and FIG. 1B, FIG. 1C, and FIG. 1D, enriching for fraction C improved the ability of the DSG2 fusion polypeptides to block ARVC patient serum.

[5] = Dynamic light scattering (DLS) of DSG2 fusion polypeptides; assay type: physicochemical; conditions: average polymer distribution index
Description: 6 candidates were compared to the reference sample.

[6] = system: ARVC serum (anti-DSG2 antibodies in serum obtained from ARVC patients); test: anti-DSG2 antibody MSD assay, blocking of ARVC patient serum; assay type: binding, human; parameters: % inhibition: concentration or dose not given beside the values; conditions: for effect of enriching for fraction C on ability to block ARVC patient serum (in words): fraction C vs whole preparation, FIG. 1B-1D; for % inhibition: fraction C (table title)
Method: as §1
ARVC diagnosis is based on complex tool known as Task Force Criteria, which can lead to varying levels of conviction about ARVC diagnosis. The utility of DSG2 antibodies as an indicator of ARVC disease state and severity was explored. Approximately 50 cc serum was collected from diagnosed ARVC patients. A total of 10 ARVC patients and 5 healthy controls were used for the analysis. ARVC serum samples were separated into more robust diagnosis and less robust diagnosis, based on available data in the patient medical records and anti-DSG2 antibody levels were compared using an anti-DSG2 antibody meso scale discovery (MSD)-based assay.

[7] = sample: Anti-DSG2 antibody (200 ng/mL) control
[8] = sample: Anti-DSG2 antibody (1000 ng/mL) control

Molecule: DSG2-(IgG1)Fc (DSG2FP#2) (Fc fusion)
- % inhibition (anti-DSG2 antibody [1]): 81.6%
- % inhibition (anti-DSG2 antibody [2]): 54.5%

Molecule: DSG2-(IgG4)Fc (DSG2FP#6) (Fc fusion)
- % inhibition (anti-DSG2 antibody [3]): > 80%

Molecule: DSG2-EAAAK-(IgG1)Fc (DSG2FP#4) (Fc fusion)
- % inhibition (anti-DSG2 antibody [1]): 85.5%
- % inhibition (anti-DSG2 antibody [2]): 61.2%

Molecule: DSG2-GGGGS-(IgG1)Fc (DSG2FP#3) (Fc fusion)
- % inhibition (anti-DSG2 antibody [1]): 85.5%
- % inhibition (anti-DSG2 antibody [2]): 61.2%

Molecule: DSG2-GGGGS-(IgG4)Fc (DSG2FP#7) (Fc fusion)
- % inhibition (anti-DSG2 antibody [3]): > 80%

Molecule: DSG2FP#5: IgG1 Fc 104-330 (L234A, L235A, P329G; SEQ ID NO: 31); DSG2 extracellular domain (50-609 of SEQ ID NO: 1)
- ability to bind to and block anti-DSG2 antibody (in words) (anti-DSG2 antibody [4]): able to bind to and block anti-DSG2 antibodies
- PDI [5]: 0.31

Molecule: DSG2FP#6: DSG2 extracellular domain (50-609 of SEQ ID NO: 1); IgG4 Fc 99-327 (S228P, L235E, P329G) SEQ ID NO: 32
- ability to bind to and block anti-DSG2 antibody (in words) (anti-DSG2 antibody [4]): able to bind to and block anti-DSG2 antibodies
- PDI [5]: 0.32

Molecule: DSG2FP#7: DSG2 extracellular domain (50-609 of SEQ ID NO: 1); GGGGS peptide linker; IgG4 Fc domain
- ability to bind to and block anti-DSG2 antibody (in words) (anti-DSG2 antibody [4]): able to bind to and block anti-DSG2 antibodies
- PDI [5]: 0.30

B1: DSG2FP#2: DSG2 extracellular domain (50-609 of SEQ ID NO: 1); IgG1 Fc 104-330 (L234A, L235A, P329G) SEQ ID NO: 31 (protein)
chain: AWITAPVALREGEDLSKKNPIAKIHSDLAEERGLKITYKYTGKGITEPPFGIFVFNKDTGELNVTSILDREETPFFLLTGYALDARGNNVEKPLELRIKVLDINDNEPVFTQDVFVGSVEELSAAHTLVMKINATDADEPNTLNSKISYRIVSLEPAYPPVFYLNKDTGEIYTTSVTLDREEHSSYTLTVEARDGNGEVTDKPVKQAQVQIRILDVNDNIPVVENKVLEGMVEENQVNVEVTRIKVFDADEIGSDNWLANFTFASGNEGGYFHIETDAQTNEGIVTLIKEVDYEEMKNLDFSVIVANKAAFHKSIRSKYKPTPIPIKVKVKNVKEGIHFKSSVISIYVSESMDRSSKGQIIGNFQAFDEDTGLPAHARYVKLEDRDNWISVDSVTSEIKLAKLPDFESRYVQNGTYTVKIVAISEDYPRKTITGTVLINVEDINDNCPTLIEPVQTICHDAEYVNVTAEDLDGHPNSGPFSFSVIDKPPGMAEKWKIARQESTSVLLQQSEKKLGRSEIQFLISDNQGFSCPEKQVLTLTVCECLHGSGCREAQHDSYVGDKTHTCPPCPAPEAAGGPSVFLFPPKPKDTLMISRTPEVTCVVVDVSHEDPEVKFNWYVDGVEVHNAKTKPREEQYNSTYRVVSVLTVLHQDWLNGKEYKCKVSNKALGAPIEKTISKAKGQPREPQVYTLPPSRDELTKNQVSLTCLVKGFYPSDIAVEWESNGQPENNYKTTPPVLDSDGSFFLYSKLTVDKSRWQQGNVFSCSVMHEALHNHYTQKSLSLSPGK
- ability to bind to and block anti-DSG2 antibody (in words) (anti-DSG2 antibody [4]): able to bind to and block anti-DSG2 antibodies
- % inhibition (anti-DSG2 antibody [4]; [7]): 54.5%
- % inhibition (anti-DSG2 antibody [4]; [8]): 81.6%
- % inhibition (anti-DSG2 antibody [4]; sample: no antibody control): −19.1%
- PDI [5]: 0.32
- effect of enriching for fraction C on ability to block ARVC patient serum (in words) [6]: more pronounced
- % inhibition ([6]; sample: ARVC serum 1): 3.0%
- % inhibition ([6]; sample: ARVC serum 2): 33.5%
- % inhibition ([6]; sample: ARVC serum 3): 26.0%
- % inhibition ([6]; sample: ARVC serum 4): 51.1%
- % inhibition ([6]; sample: ARVC serum 5): 41.8%

B2: DSG2FP#4: DSG2 extracellular domain (50-609); linker EAAAK; IgG1 Fc 104-330 (L234A, L235A, P329G) SEQ ID NO: 31 (protein)
chain: AWITAPVALREGEDLSKKNPIAKIHSDLAEERGLKITYKYTGKGITEPPFGIFVFNKDTGELNVTSILDREETPFFLLTGYALDARGNNVEKPLELRIKVLDINDNEPVFTQDVFVGSVEELSAAHTLVMKINATDADEPNTLNSKISYRIVSLEPAYPPVFYLNKDTGEIYTTSVTLDREEHSSYTLTVEARDGNGEVTDKPVKQAQVQIRILDVNDNIPVVENKVLEGMVEENQVNVEVTRIKVFDADEIGSDNWLANFTFASGNEGGYFHIETDAQTNEGIVTLIKEVDYEEMKNLDFSVIVANKAAFHKSIRSKYKPTPIPIKVKVKNVKEGIHFKSSVISIYVSESMDRSSKGQIIGNFQAFDEDTGLPAHARYVKLEDRDNWISVDSVTSEIKLAKLPDFESRYVQNGTYTVKIVAISEDYPRKTITGTVLINVEDINDNCPTLIEPVQTICHDAEYVNVTAEDLDGHPNSGPFSFSVIDKPPGMAEKWKIARQESTSVLLQQSEKKLGRSEIQFLISDNQGFSCPEKQVLTLTVCECLHGSGCREAQHDSYVGEAAAKDKTHTCPPCPAPEAAGGPSVFLFPPKPKDTLMISRTPEVTCVVVDVSHEDPEVKFNWYVDGVEVHNAKTKPREEQYNSTYRVVSVLTVLHQDWLNGKEYKCKVSNKALGAPIEKTISKAKGQPREPQVYTLPPSRDELTKNQVSLTCLVKGFYPSDIAVEWESNGQPENNYKTTPPVLDSDGSFFLYSKLTVDKSRWQQGNVFSCSVMHEALHNHYTQKSLSLSPGK
- ability to bind to and block anti-DSG2 antibody (in words) (anti-DSG2 antibody [4]): able to bind to and block anti-DSG2 antibodies
- % inhibition (anti-DSG2 antibody [4]; [7]): 61.2%
- % inhibition (anti-DSG2 antibody [4]; [8]): 85.5%
- % inhibition (anti-DSG2 antibody [4]; sample: no antibody control): 0.7%
- PDI [5]: 0.32
- % inhibition ([6]; sample: ARVC serum 1): 6.0%
- % inhibition ([6]; sample: ARVC serum 2): 9.2%
- % inhibition ([6]; sample: ARVC serum 3): −8.0%
- % inhibition ([6]; sample: ARVC serum 4): 0.8%
- % inhibition ([6]; sample: ARVC serum 5): 2.0%

B3: DSG2FP#3: DSG2 extracellular domain (50-609); linker GGGGS; IgG1 Fc 104-330 (L234A, L235A, P329G) SEQ ID NO: 31 (protein)
chain: AWITAPVALREGEDLSKKNPIAKIHSDLAEERGLKITYKYTGKGITEPPFGIFVFNKDTGELNVTSILDREETPFFLLTGYALDARGNNVEKPLELRIKVLDINDNEPVFTQDVFVGSVEELSAAHTLVMKINATDADEPNTLNSKISYRIVSLEPAYPPVFYLNKDTGEIYTTSVTLDREEHSSYTLTVEARDGNGEVTDKPVKQAQVQIRILDVNDNIPVVENKVLEGMVEENQVNVEVTRIKVFDADEIGSDNWLANFTFASGNEGGYFHIETDAQTNEGIVTLIKEVDYEEMKNLDFSVIVANKAAFHKSIRSKYKPTPIPIKVKVKNVKEGIHFKSSVISIYVSESMDRSSKGQIIGNFQAFDEDTGLPAHARYVKLEDRDNWISVDSVTSEIKLAKLPDFESRYVQNGTYTVKIVAISEDYPRKTITGTVLINVEDINDNCPTLIEPVQTICHDAEYVNVTAEDLDGHPNSGPFSFSVIDKPPGMAEKWKIARQESTSVLLQQSEKKLGRSEIQFLISDNQGFSCPEKQVLTLTVCECLHGSGCREAQHDSYVGGGGGGSDKTHTCPPCPAPEAAGGPSVFLFPPKPKDTLMISRTPEVTCVVVDVSHEDPEVKFNWYVDGVEVHNAKTKPREEQYNSTYRVVSVLTVLHQDWLNGKEYKCKVSNKALGAPIEKTISKAKGQPREPQVYTLPPSRDELTKNQVSLTCLVKGFYPSDIAVEWESNGQPENNYKTTPPVLDSDGSFFLYSKLTVDKSRWQQGNVFSCSVMHEALHNHYTQKSLSLSPGK
- ability to bind to and block anti-DSG2 antibody (in words) (anti-DSG2 antibody [4]): able to bind to and block anti-DSG2 antibodies
- % inhibition (anti-DSG2 antibody [4]; [7]): 61.2%
- % inhibition (anti-DSG2 antibody [4]; [8]): 85.5%
- % inhibition (anti-DSG2 antibody [4]; sample: no antibody control): 0.7%
- PDI [5]: 0.30
- effect of enriching for fraction C on ability to block ARVC patient serum (in words) [6]: more pronounced
- % inhibition ([6]; sample: ARVC serum 1): 9.2%
- % inhibition ([6]; sample: ARVC serum 2): 27.6%
- % inhibition ([6]; sample: ARVC serum 3): 15.5%
- % inhibition ([6]; sample: ARVC serum 4): −5.6%
- % inhibition ([6]; sample: ARVC serum 5): 20.6%
